This is an account of results in patent publication US20130005646A1 (Novo Nordisk, published 2013).

Starred links: 1 amine or outer side, 2 acyl side, 3 side chain; linkers in the order of their positions; H or OH if unused. Positions of bridges follow the written chain, without caps; N, C: chain ends. *: point of attachment. C20 diacid = O=C(O)CCCCCCCCCCCCCCCCCCC(=O)*; 19‑carboxyheptadecanoyl = not defined here; C18 diacid = O=C(O)CCCCCCCCCCCCCCCCC(=O)*; γGlu = O=C(O)[C@H](CCC(=O)[*:2])N[*:1]; AEEA = NCCOCCOCC(=O)O

Assay [1] concerns the target T1, human calcitonin (a) receptor (human, UniProt P30988 25-474).
T1 sequence (looked up): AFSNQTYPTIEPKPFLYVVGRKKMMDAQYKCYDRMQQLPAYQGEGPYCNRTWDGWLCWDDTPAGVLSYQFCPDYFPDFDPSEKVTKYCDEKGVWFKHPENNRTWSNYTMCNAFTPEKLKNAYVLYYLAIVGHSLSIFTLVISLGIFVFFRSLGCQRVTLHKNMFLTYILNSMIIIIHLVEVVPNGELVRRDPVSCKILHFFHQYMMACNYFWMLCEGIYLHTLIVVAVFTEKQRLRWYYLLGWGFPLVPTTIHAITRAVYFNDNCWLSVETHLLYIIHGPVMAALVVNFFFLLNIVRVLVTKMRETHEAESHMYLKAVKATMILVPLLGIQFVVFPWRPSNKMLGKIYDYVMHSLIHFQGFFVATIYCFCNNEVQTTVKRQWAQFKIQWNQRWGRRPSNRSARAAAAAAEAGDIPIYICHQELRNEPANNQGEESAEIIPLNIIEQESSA
Nature of the assay: cell-based or functional assay.

For assay [2], the target named is T2, human amylin 3(a) receptor (human calcitonin receptor + RAMP-3) (human, UniProt P30988 25-474; O60896 24-148).
T2 sequence (looked up) 1: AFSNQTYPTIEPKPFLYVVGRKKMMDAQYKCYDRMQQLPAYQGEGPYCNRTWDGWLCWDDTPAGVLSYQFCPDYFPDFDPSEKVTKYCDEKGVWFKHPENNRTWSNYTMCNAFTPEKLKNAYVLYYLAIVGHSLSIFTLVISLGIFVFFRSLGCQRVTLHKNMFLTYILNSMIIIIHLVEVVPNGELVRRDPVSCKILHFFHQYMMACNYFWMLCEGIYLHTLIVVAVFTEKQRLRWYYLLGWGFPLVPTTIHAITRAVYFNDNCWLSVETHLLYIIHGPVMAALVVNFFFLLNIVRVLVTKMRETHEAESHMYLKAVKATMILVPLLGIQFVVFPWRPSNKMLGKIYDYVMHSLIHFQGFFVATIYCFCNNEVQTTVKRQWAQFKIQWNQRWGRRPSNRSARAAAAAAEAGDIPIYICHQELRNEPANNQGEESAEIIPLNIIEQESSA
T2 sequence (looked up) 2: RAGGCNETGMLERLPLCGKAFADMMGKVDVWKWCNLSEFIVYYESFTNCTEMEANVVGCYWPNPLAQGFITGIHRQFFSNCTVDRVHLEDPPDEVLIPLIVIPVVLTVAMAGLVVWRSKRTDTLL
Nature of the assay: cell-based or functional assay.

B1: N-alpha-[(S)-4-Carboxy-4-(19-carboxynonadecanoylamino)butyryl]-[Glu14,Arg17]-pramlintide (peptide)
peptide: {C20 diacid-γGlu}-KCNTATCATQRLAEFLRHSSNNFGPILPPTNVGSNTY-NH2
modifications: disulfide 2-7
SMILES: CC[C@H](C)[C@H](NC(=O)[C@@H]1CCCN1C(=O)CNC(=O)[C@H](Cc1ccccc1)NC(=O)[C@H](CC(N)=O)NC(=O)[C@H](CC(N)=O)NC(=O)[C@H](CO)NC(=O)[C@H](CO)NC(=O)[C@H](Cc1c[nH]cn1)NC(=O)[C@H](CCCNC(=N)N)NC(=O)[C@H](CC(C)C)NC(=O)[C@H](Cc1ccccc1)NC(=O)[C@H](CCC(=O)O)NC(=O)[C@H](C)NC(=O)[C@H](CC(C)C)NC(=O)[C@H](CCCNC(=N)N)NC(=O)[C@H](CCC(N)=O)NC(=O)[C@@H](NC(=O)[C@H](C)NC(=O)[C@@H]1CSSC[C@H](NC(=O)[C@H](CCCCN)NC(=O)CC[C@H](NC(=O)CCCCCCCCCCCCCCCCCCC(=O)O)C(=O)O)C(=O)N[C@@H](CC(N)=O)C(=O)N[C@@H]([C@@H](C)O)C(=O)N[C@@H](C)C(=O)N[C@@H]([C@@H](C)O)C(=O)N1)[C@@H](C)O)C(=O)N[C@@H](CC(C)C)C(=O)N1CCC[C@H]1C(=O)N1CCC[C@H]1C(=O)N[C@H](C(=O)N[C@@H](CC(N)=O)C(=O)N[C@H](C(=O)NCC(=O)N[C@@H](CO)C(=O)N[C@@H](CC(N)=O)C(=O)N[C@H](C(=O)N[C@@H](Cc1ccc(O)cc1)C(N)=O)[C@@H](C)O)C(C)C)[C@@H](C)O
As to B1, the “CTa receptor human EC50” value in assay [1] worked out at 458 pM. In assay [2], the “Amylin receptor human EC50” value is 101 pM.

B2: N-alpha-[2-(2-{2-[2-(2-{2-[(S)-4-Carboxy-4-(19-carboxyheptadecanoylamino)butyrylamino]ethoxy}ethoxy)acetylamino]ethoxy}ethoxy)acetyl]-[des1,Glu14,His17]-pramlin … (peptide)
peptide: {19‑carboxyheptadecanoyl-γGlu-AEEA-AEEA}-CNTATCATQRLAEFLHHSSNNFGPILPPTNVGSNTY-NH2
modifications: disulfide 1-6; reading uncertain; also: printed as N-alpha-[2-(2-{2-[2-(2-{2-[(S)-4-Carboxy-4-(19-carboxyheptadecanoylamino)butyrylamino]ethoxy}ethoxy)acetylamino]ethoxy}ethoxy)acetyl]-[des1,Glu14,His17]-pramlintide
With B2, the “CTa receptor human EC50” value in assay [1] was 672 pM. Moreover, in assay [2], the “Amylin receptor human EC50” value was 334 pM.

B3: N-alpha-{(S)-4-Carboxy-4-[(S)-4-Carboxy-4-(17-carboxyheptadecanoylamino)butyrylamino]butyryl}-[des1,Glu14,His17]-pramlintide (peptide)
peptide: {C18 diacid-γGlu-γGlu}-CNTATCATQRLAEFLHHSSNNFGPILPPTNVGSNTY-NH2
modifications: disulfide 1-6
SMILES: CC[C@H](C)[C@H](NC(=O)[C@@H]1CCCN1C(=O)CNC(=O)[C@H](Cc1ccccc1)NC(=O)[C@H](CC(N)=O)NC(=O)[C@H](CC(N)=O)NC(=O)[C@H](CO)NC(=O)[C@H](CO)NC(=O)[C@H](Cc1c[nH]cn1)NC(=O)[C@H](Cc1c[nH]cn1)NC(=O)[C@H](CC(C)C)NC(=O)[C@H](Cc1ccccc1)NC(=O)[C@H](CCC(=O)O)NC(=O)[C@H](C)NC(=O)[C@H](CC(C)C)NC(=O)[C@H](CCCNC(=N)N)NC(=O)[C@H](CCC(N)=O)NC(=O)[C@@H](NC(=O)[C@H](C)NC(=O)[C@@H]1CSSC[C@H](NC(=O)CC[C@H](NC(=O)CC[C@H](NC(=O)CCCCCCCCCCCCCCCCC(=O)O)C(=O)O)C(=O)O)C(=O)N[C@@H](CC(N)=O)C(=O)N[C@@H]([C@@H](C)O)C(=O)N[C@@H](C)C(=O)N[C@@H]([C@@H](C)O)C(=O)N1)[C@@H](C)O)C(=O)N[C@@H](CC(C)C)C(=O)N1CCC[C@H]1C(=O)N1CCC[C@H]1C(=O)N[C@H](C(=O)N[C@@H](CC(N)=O)C(=O)N[C@H](C(=O)NCC(=O)N[C@@H](CO)C(=O)N[C@@H](CC(N)=O)C(=O)N[C@H](C(=O)N[C@@H](Cc1ccc(O)cc1)C(N)=O)[C@@H](C)O)C(C)C)[C@@H](C)O
With B3, the “CTa receptor human EC50” value in assay [1] came to 527 pM. For the same molecule, the “Amylin receptor human EC50” value in assay [2] came out at 151 pM.

B4: N-alpha-[(S)-4-Carboxy-4-(19-carboxynonadecanoylamino)butyryl]-Glu-Glu-[Glu14,His17]-pramlintide (peptide)
peptide: {C20 diacid-γGlu}-EEKCNTATCATQRLAEFLHHSSNNFGPILPPTNVGSNTY-NH2
modifications: disulfide 4-9
SMILES: CC[C@H](C)[C@H](NC(=O)[C@@H]1CCCN1C(=O)CNC(=O)[C@H](Cc1ccccc1)NC(=O)[C@H](CC(N)=O)NC(=O)[C@H](CC(N)=O)NC(=O)[C@H](CO)NC(=O)[C@H](CO)NC(=O)[C@H](Cc1c[nH]cn1)NC(=O)[C@H](Cc1c[nH]cn1)NC(=O)[C@H](CC(C)C)NC(=O)[C@H](Cc1ccccc1)NC(=O)[C@H](CCC(=O)O)NC(=O)[C@H](C)NC(=O)[C@H](CC(C)C)NC(=O)[C@H](CCCNC(=N)N)NC(=O)[C@H](CCC(N)=O)NC(=O)[C@@H](NC(=O)[C@H](C)NC(=O)[C@@H]1CSSC[C@H](NC(=O)[C@H](CCCCN)NC(=O)[C@H](CCC(=O)O)NC(=O)[C@H](CCC(=O)O)NC(=O)CC[C@H](NC(=O)CCCCCCCCCCCCCCCCCCC(=O)O)C(=O)O)C(=O)N[C@@H](CC(N)=O)C(=O)N[C@@H]([C@@H](C)O)C(=O)N[C@@H](C)C(=O)N[C@@H]([C@@H](C)O)C(=O)N1)[C@@H](C)O)C(=O)N[C@@H](CC(C)C)C(=O)N1CCC[C@H]1C(=O)N1CCC[C@H]1C(=O)N[C@H](C(=O)N[C@@H](CC(N)=O)C(=O)N[C@H](C(=O)NCC(=O)N[C@@H](CO)C(=O)N[C@@H](CC(N)=O)C(=O)N[C@H](C(=O)N[C@@H](Cc1ccc(O)cc1)C(N)=O)[C@@H](C)O)C(C)C)[C@@H](C)O
As for B4, the “CTa receptor human EC50” value in assay [1] was found to be 798 pM. In addition, in assay [2], the “Amylin receptor human EC50” value came out at 402 pM.

B5: N-alpha-[(S)-4-Carboxy-4-(17-carboxyheptadecanoylamino)butyryl]-His-[His1,Glu14,His17]-pramlintide (peptide)
peptide: {C18 diacid-γGlu}-HHCNTATCATQRLAEFLHHSSNNFGPILPPTNVGSNTY-NH2
modifications: disulfide 3-8
SMILES: CC[C@H](C)[C@H](NC(=O)[C@@H]1CCCN1C(=O)CNC(=O)[C@H](Cc1ccccc1)NC(=O)[C@H](CC(N)=O)NC(=O)[C@H](CC(N)=O)NC(=O)[C@H](CO)NC(=O)[C@H](CO)NC(=O)[C@H](Cc1c[nH]cn1)NC(=O)[C@H](Cc1c[nH]cn1)NC(=O)[C@H](CC(C)C)NC(=O)[C@H](Cc1ccccc1)NC(=O)[C@H](CCC(=O)O)NC(=O)[C@H](C)NC(=O)[C@H](CC(C)C)NC(=O)[C@H](CCCNC(=N)N)NC(=O)[C@H](CCC(N)=O)NC(=O)[C@@H](NC(=O)[C@H](C)NC(=O)[C@@H]1CSSC[C@H](NC(=O)[C@H](Cc2c[nH]cn2)NC(=O)[C@H](Cc2c[nH]cn2)NC(=O)CC[C@H](NC(=O)CCCCCCCCCCCCCCCCC(=O)O)C(=O)O)C(=O)N[C@@H](CC(N)=O)C(=O)N[C@@H]([C@@H](C)O)C(=O)N[C@@H](C)C(=O)N[C@@H]([C@@H](C)O)C(=O)N1)[C@@H](C)O)C(=O)N[C@@H](CC(C)C)C(=O)N1CCC[C@H]1C(=O)N1CCC[C@H]1C(=O)N[C@H](C(=O)N[C@@H](CC(N)=O)C(=O)N[C@H](C(=O)NCC(=O)N[C@@H](CO)C(=O)N[C@@H](CC(N)=O)C(=O)N[C@H](C(=O)N[C@@H](Cc1ccc(O)cc1)C(N)=O)[C@@H](C)O)C(C)C)[C@@H](C)O
Take B5: the “CTa receptor human EC50” value in assay [1] amounted to 258 pM. In addition, the “Amylin receptor human EC50” value in assay [2] came to 59 pM.

B6: N-alpha-[(S)-4-Carboxy-4-(17-carboxyheptadecanoylamino)butyryl]-His-His-[His1,Glu14,His17]-pramlintide (peptide)
peptide: {C18 diacid-γGlu}-HHHCNTATCATQRLAEFLHHSSNNFGPILPPTNVGSNTY-NH2
modifications: disulfide 4-9
SMILES: CC[C@H](C)[C@H](NC(=O)[C@@H]1CCCN1C(=O)CNC(=O)[C@H](Cc1ccccc1)NC(=O)[C@H](CC(N)=O)NC(=O)[C@H](CC(N)=O)NC(=O)[C@H](CO)NC(=O)[C@H](CO)NC(=O)[C@H](Cc1c[nH]cn1)NC(=O)[C@H](Cc1c[nH]cn1)NC(=O)[C@H](CC(C)C)NC(=O)[C@H](Cc1ccccc1)NC(=O)[C@H](CCC(=O)O)NC(=O)[C@H](C)NC(=O)[C@H](CC(C)C)NC(=O)[C@H](CCCNC(=N)N)NC(=O)[C@H](CCC(N)=O)NC(=O)[C@@H](NC(=O)[C@H](C)NC(=O)[C@@H]1CSSC[C@H](NC(=O)[C@H](Cc2c[nH]cn2)NC(=O)[C@H](Cc2c[nH]cn2)NC(=O)[C@H](Cc2c[nH]cn2)NC(=O)CC[C@H](NC(=O)CCCCCCCCCCCCCCCCC(=O)O)C(=O)O)C(=O)N[C@@H](CC(N)=O)C(=O)N[C@@H]([C@@H](C)O)C(=O)N[C@@H](C)C(=O)N[C@@H]([C@@H](C)O)C(=O)N1)[C@@H](C)O)C(=O)N[C@@H](CC(C)C)C(=O)N1CCC[C@H]1C(=O)N1CCC[C@H]1C(=O)N[C@H](C(=O)N[C@@H](CC(N)=O)C(=O)N[C@H](C(=O)NCC(=O)N[C@@H](CO)C(=O)N[C@@H](CC(N)=O)C(=O)N[C@H](C(=O)N[C@@H](Cc1ccc(O)cc1)C(N)=O)[C@@H](C)O)C(C)C)[C@@H](C)O
B6: in assay [1], the “CTa receptor human EC50” value was found to be 264 pM. The “Amylin receptor human EC50” value in assay [2] worked out at 62.4 pM.
